Results from patent publication US9527898B2, “Oxyntomodulin derivatives and pharmaceutical composition for treating obesity comprising the same” (Hanmi Science Co., Ltd., dated 2016).
Non-standard residues stand in square brackets, D forms with d. No end group written: not given here. *: point of attachment. Acetyl(2-(4-imidazolyl)) = O=C(Cc1c[nH]cn1)*; Aib = CC(C)(N)C(=O)O

Assays:
[1] = biological target: human GLP-1 receptor (human, UniProt P43220); experiment: cell-based or functional assay
[2] = biological target: human glucagon receptor (human, UniProt P47871); experiment: cell-based or functional assay

B1: oxyntomodulin derivative of SEQ ID NO. 13 (peptide)
peptide: HSQGTFTSDYSRYLDEEAVELFIEWLMNTK
[1]
  EC50 (nM), cAMP, CHO/GLP-1R: > 1000 nM
[2]
  EC50 (nM), cAMP, CHO/GCGR: > 1000 nM

B2: oxyntomodulin derivative of SEQ ID NO. 23 (peptide)
peptide: H[Aib]QGTFTSDYSKYLDEKRAKEFVCWLMNT
[1]
  EC50 (nM), cAMP, CHO/GLP-1R: 2.46 nM
[2]
  EC50 (nM), cAMP, CHO/GCGR: 5.8 nM

B3: oxyntomodulin derivative of SEQ ID NO. 17 (peptide)
peptide: HSQGTFTSDYSRYLDEEAVRLFIEWIRNTKRNRNNIA
modifications: not fully specified (residue 1, N-terminus); also: N-terminal CA (4-imidazoacetyl), whether it replaces His1 not given here
[2]
  EC50 (nM), cAMP, CHO/GCGR: > 1000 nM

B4: oxyntomodulin derivative of SEQ ID NO. 28 (peptide)
peptide: H[Aib]QGTFTSDYSKYLDEKRAKEFVQWLMNT
[2]
  EC50 (nM), cAMP, CHO/GCGR: 0.3 nM

B5: oxyntomodulin derivative of SEQ ID NO. 11 (peptide)
peptide: HGEGTFTSDLSRQMEEEAVRLFIEWAAHSQGTFTSDYSRYLDK
modifications: not fully specified (residue 1, N-terminus); also: N-terminal CA (4-imidazoacetyl), whether it replaces His1 not given here
[1]
  EC50 (nM), cAMP, CHO/GLP-1R: > 1000 nM
[2]
  EC50 (nM), cAMP, CHO/GCGR: > 1000 nM

B6: oxyntomodulin derivative of SEQ ID NO. 6 (peptide)
peptide: {Acetyl(2-(4-imidazolyl))}-HGEGTFTSDLSRQMEEEAVRLFIEWAAHSQGTFTSDYSKYLD
[2]
  EC50 (nM), cAMP, CHO/GCGR: > 1000 nM

B7: oxyntomodulin derivative of SEQ ID NO. 24 (peptide)
peptide: H[Aib]QGTFTSDYSKYLDEKRAKEFVQWLMNTC
modifications: also: possible ring formation not assignable from text
[1]
  EC50 (nM), cAMP, CHO/GLP-1R: 1.43 nM

B8: oxyntomodulin derivative of SEQ ID NO. 25 (peptide)
peptide: H[Aib]QGTFTSDYSKYLDEKRAKEFVQWLMNTC
modifications: also: possible ring formation not assignable from text
[1]
  EC50 (nM), cAMP, CHO/GLP-1R: 1.9 nM

B9: oxyntomodulin derivative of SEQ ID NO. 30 (peptide)
peptide: H[Aib]QGTFTSDYAKYLDEKRAKEFVQWLMNTC
[1]
  EC50 (nM), cAMP, CHO/GLP-1R: 2.2 nM
[2]
  EC50 (nM), cAMP, CHO/GCGR: 80.2 nM

B10: oxyntomodulin derivative of SEQ ID NO. 31 (peptide)
peptide: Y[Aib]QGTFTSDYSKYLDEKRAKEFVQWLMNTC
[1]
  EC50 (nM), cAMP, CHO/GLP-1R: 12.5 nM
[2]
  EC50 (nM), cAMP, CHO/GCGR: 1 nM
